Source: the DeepSol protein solubility set

Assay: soluble on expression in E. coli; label from the status in PepcDB or PDB records

| Sequence | soluble on expression in E. coli |
| --- | --- |
| QIVLTQSPAIMSASPGEKVTMTCSASSSVSYMHWYQQKSGTSPKIWIYESSKLASGVPVRFSGSGSGTSYSLTISSMEAEDVATYYCQQWSSHPHPLTFGAGTKLELKRADAAPTVSIFPPSSEQLTSGGASVVCFLNNFYPKDINVKWKIDGSERQNGVLNSWTDQDSKDSTYSMSSTLTLTKDEYERHNSYTCEATHKTSTSPIVKSFNRNEC | soluble |
| MTTKLVRPSDQATSNQVPVPGALVPHLDQCALLLDIDGTLLDLAPTPREVWVPPELEQTLTNLLVRTSGALALVSGRSINDIDLIFAPMRLPAVGGHGAEMRLSGEGEAIATHAPPLDSELKSRLAAIARISPGILLEDKGYSLALHYRLAPHTEKAIYEAVAAIRAENPEAPLEVLPGKSVCEIKHSGFTKATGVLELMTRAPFKGRRPIFIGDDVTDETVFAIMPELRGLAFSVGRYSELTSGHFDEPRDVRNWLARLLEPANLEHHHHHH | soluble |
| MGEVKDLGMADHGGFDLKIGARVVLEDVKLGDSIAVNGTCLTVTEFNAEEFTVGLAPETLRKTSLEELKKGSPVNLERALQPVSRMGGHVVQGHVDGTGVIESMEVEGDSLWVKVKADKGLLKYIVPKGFVAVDGTSLTVVDVFDEESCFNFMMIAYTQQNVVIPTKKIGQKVNLEVDIMGKYVERLLTSGGFSKGN | soluble |
| MAKPSFSCSACGASFTKWSGRCEGCGDWNTISQDAGLSAGPAKKSLGAKRGRAVTLTDLASEEAPPPRAMSGIGELDRVLGGGLVPASAILVGGDPGIGKSTLLLQAVAAFARKGLKTLYVSGEEASAQVRMRARRLGLADAPVQLAAETNLRDILTTLEAEKPGLVIIDSIQTMWADNVDSAPGSVSQVRASAHELTTFAKRTGISVIMVGHVTKDGQIAGPRVVEHMVDTVLYFEGERGHQFRILRSVKNRFGAADEIGVFEMTGAGLAEVTNPSALFLSERGAPSPGSVVFAGIEGTRPVLVELQALVAPSPHSQPRRTVVGWDGGRLAMILAVLEARCGIPFAGLDVYLNVAGGLKISEPAADLAVAAALLSAREDRALPGDTVIFGEISLSGALRPASQTENRLKEAQKLGFTSAIAPAGGKTGTLEGLTMTRPTDLVGFVGEFFGAGLEHHHHHH | not soluble |
| MGSDKIHHHHHHMRKVGMTTTIPVEVVYAAGLIPVDLNNIFVTHENPQSLVEEAEMAGYPRNLCAWIKGLYSTILQNDDIQTLIAVTQGDCSNTHALMETLEMAGVNVIPFAFPFDRDYDLLKLQMEKLINTLGTTWDEVYHAKKRLDAIRSKVHELDRLTWQGDRVRGWDNHLYQVCCSDLEGDPEDFGRRVDQYLAELPAKEPIKAKVRLAYIGVPPIMDDLYDYVEERGARVVFNEVQRQFTMPFATDDIVEQYRIYSYPYGIFYRLQDISRELEQRQVDGVIHYAQSFCYRQIEDLIVRQKLKYPILTLEGDKPNKLDARTRMRLDAFLDMLR | not soluble |
| MAHTGRMFKIEAAEIVVARLPLKFRFETSFGVQTHKVVPLLILHGEGVQGVAEGTMEARPMYREETIAGALDLLRGTFLPAILGQTFANPEAVSDALGSYRGNRMARAMVEMAAWDLWARTLGVPLCTLLGGHKEQVEVGVSLGIQADEQATVDLVRRHVEQGYRRIKLKIKPGWDVQPVRATREAFPDIRLTVDANSAYTLADAGRLRQLDEYDLTYIEQPLAWDDLVDHAELARRIRTPLCLDESVASASDARKALALGAGGVINLKVARVGGHAESRRVHDVAQSFGAPVWCGGMLESGIGRAHNIHLSCLSNFRLPGDTSSASRYWERDLIQEPLEAVDGLMPVPQGPGTGVTLDREFLATVTEAQEEHRA | soluble |
| MGSDKIHHHHHHVRFATKFDLLSHIRLNAALTSARFDAEQGLWLLRLENGEQLKASFFICSAGPLSEPRYPDIPGMDTYEGRLFHSARWDHDYPLNGKRVAVIGTAASAVQIIPHIAPLAARLYVCQRSPNWIIPRLNHVYAPWEKALFRLKPIAKTNRFLLYWLHEMNRLSFNPGGFMARIGRELAEWHLRRQVIDPRLRGALRPGYPLGCKRVLLSNDYYPTLMRPNVELIDTPIDRIDPGGIVTRDGQKREVDVIICATGFNVKRMLSVEIRGLQGYRLNEAWAREPKAYQGVTVASFPNLFILLGPNTGQGHTSAILFIEAQVNYALKCIQEIARQQKRFLSVKPEAMNRYNEELQKTLSTSVWAAGCRSWYKTESGKIIGIYPGFSFQYAKQLREPRFEDYVMC | not soluble |
| MISPKKEITSSKYQKIAISVAQRIANGEYEVGEKLKSRTTIASTFNVSPETARKGLNILADLKILTLKHGSGAIVLSKERAIEFINQYESTHSIAVLKEKIRETINDQGKAMEKMAVLVNDFLMQSQSVSKQYPLAPYEIICNQDSEHFGKSIGVLNIWHQTGATIVAIEHAGQFIVSPGPYSVIEKGDHIYFVGDESVISRMKTFFNLRKGL | not soluble |
| MSLSRFQFVADHLHAFEVKWLCAGVEVARSSFYAWLAGAEGRAARKAADEALAARIRMVHDEDNTYGAPRITAELNDSVPDGERVNHKRVARVMRDAGIAGYRRRRRVKTTTPDPAKQKVPDLLKRDFTAPAPNEKYVGDITYLPLATGSNLYMATVIDCFSGRVAGWAIAEHMRTELVEDALKAADALRGSLAGAVFHSDHGSQYTSTDFASLCEKLGVTQSMGGVGSSADNALAESFNASLKREVLQDRSHWPDSATCRRQVFRWLVRYNLRRRHSRCRYSSPVSYERSHAPATLPEAAEGHHHHHH | not soluble |
| MSLSKLGIIGLGKVGTQVLTDVQQLNLFSEIILIDDRADVASGEALDHIHSQGLINTAHIKIRSGVYQDLTDADFIVIAASEATDKNNGDRTLLAQGNHDIIKGIMSQIAEVTQEAVVILISNPVDSMVYFANQIDYPAHKIIGTGTALETSRFKTIIADHYQIDPNNVEAFVIGEHGQHAIPVWSKVHIHGMELSEFEALSDRPAIDKSHISSIINEVSMDVFYQKGWTNAAISKVTSFLIQSIALDQRTITPLTSLSSEYGLEDGAFSLPTLIDKKGIVQRFAITLDKEEERELKEAYEYIRQTIHTAQEGHHHHHH | soluble |
| MEIQFLGTGAGVPAKHRNVTGIALKLLDERNAVWLFDCGEGTQLQILKSSIRPRKIEKIFITHLHGDHIFGLPGLLSSRSFQGGTEPLEIYGPVGIADFVKTSLRVSQSRLSYPLKFIELTKENDVIFKDKQFTVRCNILDHGITSFGYRIEEAAHEGELQVEKLQALGIPSGPLYGKLKRGETIVFDGQEINGQAFVGERKPGRIVTILGDTRKTKNSVTLARRADVLVHESTFNKHEAKMAKAYFHSTSQQAAEVAKEAQVKQLILTHISARYLTKEAYQLQEEAQEIFPNTKIVKDMDIIEIPFANEGGA | not soluble |
| MTLEWEEFLDPYIQAVGELKIKLRGIRKQYRKQNKHSPIEFVTGRVKPIESIKEKMARRGITYATLEHDLQDIAGLRVMVQFVDDVKEVVDILHKRQDMRIIQERDYITHRKASGYRSYHVVVEYTVDTINGAKTILAEIQIRTLAMNFWATIEHSLNYKYQGDFPDEIKKRLEITARIAHQLDEEMGEIRDDIQEAQALFDPLSRKLNDGVGNSDDTDEEYR | soluble |
| GSQGHDTVQPNFQQDKFLGRWYSAGLASNSSWFREKKAVLYMAKTVVAPSTEGGLNLTSTFLRKNQCETKIMVLQPAGAPGHYTYSSPHSGSIHSVSVVEANYDEYALLFSRGTKGPGQDFRMATLYSRTQTLKDELKEKFTTFSKAQGLTEEDIVFLPQPDKCIQE | soluble |
| MEFYMKAFNKLFSLVVASVLVFSLAGCGDKEESKKFSANLNGTEIAITYVYKGDKVLKQSSETKIQFASIGATTKEDAAKTLEPLSAKYKNIAGVEEKLTYTDTYAQENVTIDMEKVDFKALQGISGINVSAEDAKKGITMAQMELVMKAAGFKEVK | not soluble |
| MGSDKIHHHHHHVRNYTYRYLNTIALPMETVRLISRINEYKGKQDLYKQQAPQVLDTLRDVAVIQSTKASNAIEGIVVTESRLHTIMSKSADPADRSEAEIAGYRDVLNLIHASARDIPINANVLLQLHKELYKFVPVEGGRWKNVDNEISESFPDGTRRTRFVPVPAFETPASVQALCDSLRERRQQEDVDPLILTSLFVLDFLSIHPFNDGNGRMSRLLTLLLLYQEGFEVGRYISLEKIVESRKEDYYESLRLSSIHWHQNQQDPFPWVNYLLSTILAAYKELEDRVGLITTGNQNKAGRIRQFVESRITPFTKADVRNACPDVSEATINRLLRELRDEGLIKPSGRGRGAKWIKR | not soluble |
| MLSFAPYRFSQVLEHQCTRNGSVLIRHTEEFTSKTCSRCGHIHYSLGGQKIFKCSNCGNHLPRDWNGALGNFLKALWDTTLEHHHHHH | not soluble |
| RCGAGGYEALRGPLGAAGRRARQAWTIAPGSRRRGKAAAQSSVPGAGHAGGGAAPRRPAAAVRPGSPPLAGALTPRPSPLQGPFPGRLLAGPPPRFPGGTMTDTRRRVKVYTLNEDRQWDDRGTGHVSSGYVERLKGMSLLVRAESDGSLLLESKINPNTAYQKQQDTLIVWSEAENYDLALSFQEKAGCDEIWEKICQVQGKDPSVDITQDLVDESEEERFDDMSSPGLELPSCELSRLEEIAELVASSLPSPLRREKLALALENEGYIKKLLELFHVCEDLENIEGLHHLYEIIKGIFLLNRTALFEVMFSEECIMDVIGCLEYDPALSQPRKHREFLTKTAKFKEVIPISDPELKQKIHQTYRVQYIQDMVLPTPSVFEENMLSTLHSFIFFNKVEIVGMLQEDEKFLTDLFAQLTDEATDEEKRQELVNFLKEFCAFSQTLQPQNRDAFFKTLSNMGILPALEVILGMDDTQVRSAATDIFSYLVEYNPSMVREFVMQEAQQNDDDILLINLIIEHMICDTDPELGGAVQLMGLLRTLVDPENMLATANKTEKTEFLGFFYKHCMHVLTAPLLANTTEDKPSKDDFQTAQLLALVLELLTFCVEHHTYHIKNYIINKDILRRVLVLMASKHAFLALCALRFKRKIIGLKDEFYNRYIMKSFLFEPVVKAFLNNGSRYNLMNSAIIEMFEFIRVEDIKSLTAHVIENYWKALEDVDYVQTFKGLKLRFEQQRERQDNPKLDSMRSILRNHRYRRDARTLEDEEEMWFNTDEDDMEDGEAVVSPSDKTKNDDDIMDPISKFMERKKLKESEEKEVLLKTNLSGRQSPSFKLSLSSGTKTNLTSQSSTTNLPGSPGSPGSPGSPGSPGSVPKNTSQTAAITTKGGLVGLVDYPDDDEDDDEDEDKEDTLPLSKKAKFDS | soluble |
| MVQHSDEKGGAMTTLAIDIGGTKLAAALIGADGQIRDRRELPTPASQTPEALRDALSALVSPLQAHAQRVAIASTGIIRDGSLLALNPHNLGGLLHFPLVKTLGQLTDLPTIAINDAQAAAWAEYQALEGDITDMVFITVSTGVGGGVVSGGKLLTGPGGLAGHIGHTLADPHGPVCGCGRTGCVEAIASGRGIAAAAQGELAGADAKTIFMRAGQGDEQAQQLIHRSAHVLARLIADIKATTDCQCVVVGGSVGLAEGYLALVETYLAQEPAAFHVDLLAAHYRHDAGLLGAALLAQGEKL | soluble |
| MEEELRVRLNDHQVSKVFPVKPKSTANVVAVMEELVARRKLMKCVSNMEEGELGMLLGFLQRYCTVQRYSGLLMGLTKKVLETRAEDIKGKNEFKGLLRNLKREVNQEIRIQQSLLEIQGVIAPLMRIAGRS | not soluble |
| MSLELSDCSVPLTKEDIKDFEMELNIKIPAAMKNFYLKFNGGMPSPYCFQPQDEDLDWVEINAFFPIKERTNAFETIEVIAKDIWSKNLMPCNLLPFAMDSGGNYYTLNLKNKKIYYYLTDEWDENASKEYNFETNTRYIAQSFNYFINHFIEEEEEGHHHHHH | soluble |
| MIFYFSGTGNSKWIANQLSKEQQEDLFFIPDAWKNDTWEFSLREDEKIGFVFPVYSWAPPVIVQEFIRKLVLKGYQQQYLFFVCSCGDDTGLTRQVMEKALAARGWRCNAGFSVIMPNNYVLFLGFDVDSKELEKKKLAEAVPALEKVSRLITGRETVFACKEGSLPFIKTRIINPLFVRYQMSPKPFHATSECIGCKRCEKSCPVGNITMKERRPVWGKNCTACLACYHVCPQHAVQYGKKTKGKGHYFNPDSAY | not soluble |
